Two substances from patent publication US7150969B2, “Alternatively spliced isoform of acetyl-CoA carboxylase 2 (ACC2)” (Rosetta Inpharmatics LLC, priority 2004, dated 2006) can be followed below.

In the data set the test system is CC(=O)SCCNC(=O)CCNC(=O)[C@H](O)C(C)(C)COP(=O)(O)OP(=O)(O)OC[C@H]1O[C@@H](n2cnc3c(N)ncnc32)[C@H](O)[C@@H]1OP(=O)(O)O. Put plainly: purified protein, by the assay type. The note with it: other: 37° C., 40 minutes, pH 7.5, 20 mM citrate.

What is called Km is the concentration of substrate that gives half-maximal velocity. As for ACC2 (Homo sapiens), the Km came to 108 µM.
Then ACC1 (Homo sapiens), with 51 µM.
